The values below come from the DeepSol protein solubility set.

This data set in a line: soluble on expression in E. coli; label from the status in PepcDB or PDB records.
As to “METHEKIRLMRELNKWSQEDMAEKLAMSAGGYAKIERGETQLNIPRLEQLAQIFKIDMWDLLKSGGGGMVFQINEGDSGGDIALYASGDVSMKIEFLKMELKHCKEMLEQKDKEIELLRKLTETV”, the “soluble on expression in E. coli” value is reported as “not soluble”.

Consider “MDWGTELWDQFEVLERHTQWGLDLLDRYVKFVKERTEVEQAYAKQLRSLVKKYLPKRPAKDDPESKFSQQQSFVQILQEVNDFAGQRELVAENLSVRVCLELTKYSQEMKQERKMHFQEGRRAQQQLENGFKQLENSKRKFERDCREAEKAAQTAERLDQDINATKADVEKAKQQAHLRSHMAEESKNEYAAQLQRFNRDQAHFYFSQMPQIFDKLQDMDERRATRLGAGYGLLSEAELEVVPIIAKCLEGMKVAANAVDPKNDSHVLIELHKSGFARPGDVEFEDFSQPMNRAPSDSSLGTPSDGRPELRGPGRSRTKRWPFGKKNKTVVTEDFSHLPPEQQRKRLQQQLEERSRELQKEVGQREALKKMKDVYEKTPQMGDSASLEPQIAETLSNIERLKLEVQKYEAWLAEAESRVLSNRGDSLSRHARPPDPPASAPPDSSSNSASQDTKESSEEPPSEESQDTPIYTEFDEDFEEEPTSPIGHCVAIYHFEGSSEGTISMAEGEDLSLMEEDKGDGWTRVRRKEGGEGYVPTSYLRVTLN”, for which the “soluble on expression in E. coli” value is on record as “soluble”.

As to “KVKELTILYRGSTAPTLASGLTPFHKDSLDVWTDWGVNDIPTAIQITNGGGSTVTPQLKTSAETLKQTMKLYPNAQIYVYGHSLGSMNAQYAIADLDKKDIKRISGGFFYQGPNIYSNLTPKQQDTVKAINALDRLFNFIDRKDYVAIGYGTGDPTIGHLIEVESKKAGLV”, the “soluble on expression in E. coli” value is reported as “not soluble”.

In the case of “MGSDKIHHHHHHMDVFSDRVLLTEESPIRKLVPFAEMAKKRGVRIHHLNIGQPDLKTPEVFFERIYENKPEVVYYSHSAGIWELREAFASYYKRRQRVDVKPENVLVTNGGSEAILFSFAVIANPGDEILVLEPFYANYNAFAKIAGVKLIPVTRRMEEGFAIPQNLESFINERTKGIVLSNPCNPTGVVYGKDEMRYLVEIAERHGLFLIVDEVYSEIVFRGEFASALSIESDKVVVIDSVSKKFSACGARVGCLITRNEELISHAMKLAQGRLAPPLLEQIGSVGLLNLDDSFFDFVRETYRERVETVLKKLEEHGLKRFTKPSGAFYITAELPVEDAEEFARWMLTDFNMDGETTMVAPLRGFYLTPGLGKKEIRIACVLEKDLLSRAIDVLMEGLKMFCSSRISC”, the “soluble on expression in E. coli” value is “soluble”.

As to “MGSDKIHHHHHHMKNLIFKDSQFEFQTLRVLGSSASGAADIGEVVETAQRIKEGDFKSWCDEWSKTAKSLEESAEESYSKGHFISAKKAYLRAANYYRTAEFYLHENPNNPIIGELYEKSLRCFSYVMKLNKPAIEAVKIPYENTFLPAHYYKLQNSNGKAPVLIAMTGYDGTKEEFYGLAMTALEHGMNFLTFEGPGQGEAVRKQKLFFRYDYEKVVTPVIDYVISRKEVDQAKIILWGESLGGYLAPRAAAFEHRLAACVANSGVYDFFGGILRELGNNSREEFFSAARINPEEFDKNIYSIAKLNSKVRWGIYHGMYVFGVNSPHEYILKAEDFYLKDIAEKIKCPTLVIDSDNDGILGGQSKPLYDVLRCKKEYMFFTSENGAGYHCQVGAKLIGWERILSWIEDIIK”, the “soluble on expression in E. coli” value is on record as “not soluble”.

Regarding “MDKFKGAVMVGALRLFALLPWRAVQWVGTAIGWLMWKLPNRSREVARINLSKCFPELSEPELEKLVGRSLMDIGKTLTESACAWIWPAQKSINLVREVEGLEVLKDALASGKGVVGITSHLGNWEVLNHFYCSQCKPIIFYRPPKLKAVDDLLRKQRVQLGNRVAASTKEGILSVIKEVRKGGSVGIPADPEPAESAGIFVPFCGTQALTSKFVPNMLAGGKAVGVFLHAMRLPDGSGYKVVLEAAPEAMYSTDTQTSAAAMSKVVEKYVRAYPSQYMWTMKRFKK”, the “soluble on expression in E. coli” value is “not soluble”.

Consider “MGSDKIHHHHHHMTIFSVRHITSYRYKRPVEFGEHRLMFRPRDSFDQTLLSSHLDVDPKPDYIRWIHDVFGNCVALVGFTGKARELCFGTNIRLDHTQQVEMDLQIDAEALHYPFAYDPEEVVDLERTIKRHFADPDDEVGRWTRQFVRIGQPTETGRLLMTLCYAIHESFIYARRLEHGTQTPLETLRLRRGTCRDFALLMMEAARSLGLAARFVTGYIYVPDRDGSTKLGGGSTHAWCQVYLPGAGWVEFDPTNGIVGNRDLIRVGVARDPKQAVPLSGSYDGDASDFDTMSVQVNVTTDKLSDTAA”, for which the “soluble on expression in E. coli” value was “not soluble”.

Take “MSSGFGGEKEEEITQKTAKSSEKAIVPKYNISDSYYKMVLPFKAGKARGLTTEQLNTRLDIDEFETGLMRLAQDSFSTDDYLFQEGQYLDEDTVLSWLARKKTGSDLKKAEKEDKNFKNEGLNPALPSSGSTEEKNESSPIYLASMLEHDYLVRKDKNSIQLGGVMIGLALNSVYYYREKTGDPQKEVEIKDSTLRQQGEKIAQEVINRLRKKDNLKNVPITVALYKQASKTSIVPGNFIAKTEVKAGSTDISNWDDINEKYVFYPADTTTAEKYPDDTEVFKRFKNSIEEYFPNYTGVVGTALYENDEMKKMKIDIPMQFYGKSEVVAFTQFLTGEVMDYYSKSSVDVEVNITSSDGQEAVIIRNAGDKEPTVHIYDLEHHHHHH”: the “soluble on expression in E. coli” value was “soluble”.

For “MNATIQTIPELLIQTRGNQTEVARMLSCARGTVLKYNRDSKGERHVIVNGVLMVKQGKRGRP”, the “soluble on expression in E. coli” value was “not soluble”.

As to “MSLPAGPSMACQKGTSTWAKAERPRSAKGRSFRMARILLPFSATMGGSRLQWEGMAASHALKPILELLPEELPGEGYRRAQIAHWLYAKGARDFSEMTDLPKALREALAREWRLSEFSLVQAFPSQDGSVKYLFTLLDGKKTEAVYMPYENRKTVCLSTMVGCPAGCTFCATGALGFGRNLTAAEILDQLLTIAYHQGLSPREIRNVVLMGMGEPLLNLRNVLKAVRIMLHKKALALSPRRVTLSTVGIPKGIYRLAEEDLGVRLALSLHAPDDETRRKIIPTAHRYPIAEIMEAVRHYHAKTKRRVTFEYTLLKGVNDHLWQARLLAKLLKGLSAHVNLIPFNPWEGAPVVGTPRAGVLAFAEELKRLGVPTSIRWSRGQDVGAACGQLALKVPRPLTLTPLPGGAGR”, the “soluble on expression in E. coli” value is given as “soluble”.

For “MSLRLGVTGLSRAGKTVFISSLVHNLLNGGRLPLFEAMRSGRVSNVRLEPQPDDAIPRFQYEDHIQALVRDRLWPDSTRAISELRITLDYQSASGWGRWFSAGKLSIDIVDYPGEWLLDLPLLSQDYKQFSDATVALAGSGIRAELAQEWLAIASSLDINAPADEMTARRLAESFAAYLKACKSDERSLSTLPPGRFLMPGDLEGSPALTFAPLPGVTDAKAPKGSLRAMMERRYDAYKSIVVKPFFREHFARLDRQIVLIDTLQAVNRGPEAVQDLERALGDVLACFRPGTNSILSSLIRRRIDKVLIAATKADHLHHESHDRLERLTRRLVDRAITTIGMNGAGIEVMALASVRATREASVRQDGHELPVIVGTPMAGETINGEIFDGNRKTAIFPGDLPEDPEPLFRSIDQDGDKATLPDVNVVRFRPPNIDEPGSGGIRLSVPHIRLDRAMQFLFGDKLAEGHHHHHH”, the “soluble on expression in E. coli” value is recorded as “soluble”.

Consider “MSLTKLIVICGATATGKSGLALNLAMRLGSVILSADSRQVYREFDIGTAKPTLAEQRAVPHYLIDICAPRETMTVADYQEQAQALINSLPVSPLLLVGGTGLYIRSIVQGMKIPRVAPNYELRSQLASLGQTTLYGILQQVDPIAAQKIHPNDPVRTLRAVEVFYITGIPISAQQGENPPDYPILQIGLDCEMERLTERIHKRTEQMITDGLVGEVEYLCQKYGAELPLLNTLGYQEIKQYLTGEISLEAAKELTVLHTRQFAKRQRTWFRASPQIEWFNADHPDLLDIVCQHIQQPEGHHHHHH”, for which the “soluble on expression in E. coli” value is “soluble”.

On to “MASTDTYNPTRDDFAAMLDESFAGGNLQESSVIKGKVVAIEKDMAVIDVGLKTEGRVPLREFAGPGRDNEIKVGDTVEVFLDRIENALGEAVLSRDKARREESWGKLEKAFQNNEKVFGVIFNQVKGGFTVDLDGAVAFLPRSQVDIRPIRDVAPLMNNSQPFQILKMDRRRGNIVVSRRTVLEETRAEQRQELVQNLEEGQVIDGVVKNITDYGAFVDLGGIDGLLHVTDIAWRRVNHPTEVLTIGQTVKVKIIKINHETHRISLGMKQLLDDPWQGIEAKYPLNARFTGRVTNITDYGAFVELEPGIEGLIHVSEMSWTKKNMHPGKIVSTSQEVEVQVLEVDSVKRRISLGLKQTMRNPWEVFVEKHPVGSTVEGEVKNKTEFGLFLGLDGDVDGMVHLSDLDWKLPGEQVIDNFKKGDMVKAVVLDVDVEKERISLGVKQLEGDPFAEPGDVKKGAVVTCEVLDVKESGIDVQIVGTDFNTFIKRSELARDRNDQRSDRFAVGEKVDARVIQFDKKARKVQVSIKALEVAEEKEAIAQYGSSDSGATLGDILGTALKQRDKLEHHHHHH”, for which the “soluble on expression in E. coli” value is given as “soluble”.

Consider “AFYYLSNFERALAWLAERYDDVLDAGEHAFVGAFGALPRASRALLVRMLMRKGPMFRASKLAYDEIGCPLAAAAPLVALGWIDPEPPLSLDALFALATKPELRDAFPDAPASGAVRKADWLDALRARHDGERPWAQWLPSIDDRVLRVTAAVDALCSRLRLMFFGNLHQDWSEFVLADLGLLQYETVAFAPSSRAFQRRDDVDAYLRLHACRELLEVWPADAPLAPLVEAAAAVDCGNAWLAMRRAKLTFSIGQACERRADWDGALAAYASSAWPGSRQRRVRVLERCERFDTALALADEAARAPENEAEAQQIARMLPRLRRRVGLPAGRAARAREIPRDSLELAHPGVPYPVEYVARDHLSRADAPVFYVENALINSLFGLLCWEPVFAAVPGAFFHPFQRGPADLHAPDFRARRAAQFDACLAQLDGTQYRDTIRRHYARKRGVQSPFVFWGALDETLLEHALACLPAEHLRLWFERLLDDVRGNRSGLPDLVRFWPAERRYELIEVKGPGDRLQDNQIRWLDYCVRHRMPVRVIDVRWSGDAQASSQDEGAL”, for which the “soluble on expression in E. coli” value was “not soluble”.

Consider “MGSDKIHHHHHHMKIGFIGTGNMGTILIESFIESKAADPSNMTITNRTIEKALHIKNRYNSINVTESLEKLVSENEMIFICVKPLDIYPLLARALPYLRKDHILISITSPVQTEQLEQYVPCQVARVIPSITNRALAGVSLVTFGTSCGESAKAKINELMQHISHPLQIESDITRVASDIVSCGPAFMSYLIQRFIDAAVSETSVSKQDAILMCKEMLVGMGKLLETELYTLPALQEKVCVKGGVTGEGIKALESGVQDMFHRVFQNTHMKYEEDISAVKKQFHV”, for which the “soluble on expression in E. coli” value is “not soluble”.

With “MKLLRYGPVGEERPALLDELGEIRDLSAHIEDISGKFLLPATLYKLRQLDSASLPLVRGEQRLGACVGHVGKFICVGLNYADHAAETGAEIPQEPVIFNKWTSAIIGPNDDIEIPRNSVKTDWEVELGVVIGTGGRYIGEANAMSYVAGYCVVNDISEREFQLEHGGTWDKGKGCDTFGPIGPWLVTRDEIPDPHQLGLWLDVDGRRYQNGSTRTMIFKIPQIISYLSRFMSLQSGDVISTGTPPGVGLGQKPPVYLHAGQIMRLGIEGLGEQCQKTIQA”, the “soluble on expression in E. coli” value is reported as “not soluble”.

With “MIIVHHLNNSRSQRILWLLEELGLPYEIKRYQRDPKTNLAPPELKAIHPLGKSPVIEDGPHVVIESGAIVDYLIRRHGDGRLQPDPASATYDEYVQWLHFAEGSAILPLMLNLYVGRLGDAGAPLHPRIHSELANYLGYLNEALGLTPYLLGDELSGADIQMSFIGEFAKMQGMLQPHPNLAAWVQRCQERPAYRQALEQGGEYSFAK”, the “soluble on expression in E. coli” value is recorded as “not soluble”.

With “MGSDKIHHHHHHMQVLLVGGTGTLGRQIARRAIDAGHQVRCMVRKPRKGAFLQEWGCELTCGDLLDPETIDYSLDGIDAVIDAATSRPDDSASVYTTDWDGKLNLLRACEKAGVTRYVFLSLLAAEKHLNVPLMDIKFCTERLLADSSFDYTILQGVAFMQGLIGQIAIPVLENQTVWVSETPTAVAYMNTQDVARFAVAALERPETIRRSFPVVGPKAWTSEEIVQFCEKSSSKTAKVIRVSPFLIGLSQRVVSFFEQSVNMAERLAFAEVTGGGIALDAPMDDTYSCFGLDSSETTPLESYISEYYDTILKRLREMEADLDEESRKKLPF”, the “soluble on expression in E. coli” value was “not soluble”.
